Test results: patent publication US20180118846A1

Key:
Experiment in all cases: cell-based or functional assay
CEACAM5 (human) = CEACAM5 (human) (UniProt P06731)
CEACAM6 (human) = CEACAM6 (human) (UniProt P40199)
CD19 (human) = CD19 (human) (UniProt P15391)
CD20 (human) = CD20 (human) (UniProt P11836)
CD22 (human) = CD22 (human) (UniProt P20273)
HLA-DR (human) = molecular target: HLA-DR (human)

Chain of CD20 (human) (P11836 whole entry): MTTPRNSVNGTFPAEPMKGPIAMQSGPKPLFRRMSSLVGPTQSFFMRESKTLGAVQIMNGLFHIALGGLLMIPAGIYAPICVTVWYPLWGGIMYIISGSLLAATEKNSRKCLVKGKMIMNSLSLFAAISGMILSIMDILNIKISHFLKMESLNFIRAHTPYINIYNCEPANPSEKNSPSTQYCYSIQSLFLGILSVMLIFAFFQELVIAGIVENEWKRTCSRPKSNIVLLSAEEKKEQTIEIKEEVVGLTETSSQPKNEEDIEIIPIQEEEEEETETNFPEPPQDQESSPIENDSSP
Chain of CD19 (human) (P15391 20-556): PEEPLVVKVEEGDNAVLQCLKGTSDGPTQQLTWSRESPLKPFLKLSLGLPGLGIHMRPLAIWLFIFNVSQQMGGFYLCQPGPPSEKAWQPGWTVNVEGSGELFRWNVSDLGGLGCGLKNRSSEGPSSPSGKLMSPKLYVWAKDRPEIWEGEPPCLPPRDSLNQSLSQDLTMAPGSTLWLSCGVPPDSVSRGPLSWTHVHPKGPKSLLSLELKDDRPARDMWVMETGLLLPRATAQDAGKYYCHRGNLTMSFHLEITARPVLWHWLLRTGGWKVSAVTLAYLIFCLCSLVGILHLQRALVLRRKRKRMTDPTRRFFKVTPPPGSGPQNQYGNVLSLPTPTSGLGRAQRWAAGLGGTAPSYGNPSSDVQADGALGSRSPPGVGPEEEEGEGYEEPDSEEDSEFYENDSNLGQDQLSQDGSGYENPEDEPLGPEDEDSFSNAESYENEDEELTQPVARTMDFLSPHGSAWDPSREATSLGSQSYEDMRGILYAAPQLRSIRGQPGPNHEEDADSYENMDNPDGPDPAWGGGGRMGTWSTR
Chain of CEACAM5 (human) (P06731 35-702): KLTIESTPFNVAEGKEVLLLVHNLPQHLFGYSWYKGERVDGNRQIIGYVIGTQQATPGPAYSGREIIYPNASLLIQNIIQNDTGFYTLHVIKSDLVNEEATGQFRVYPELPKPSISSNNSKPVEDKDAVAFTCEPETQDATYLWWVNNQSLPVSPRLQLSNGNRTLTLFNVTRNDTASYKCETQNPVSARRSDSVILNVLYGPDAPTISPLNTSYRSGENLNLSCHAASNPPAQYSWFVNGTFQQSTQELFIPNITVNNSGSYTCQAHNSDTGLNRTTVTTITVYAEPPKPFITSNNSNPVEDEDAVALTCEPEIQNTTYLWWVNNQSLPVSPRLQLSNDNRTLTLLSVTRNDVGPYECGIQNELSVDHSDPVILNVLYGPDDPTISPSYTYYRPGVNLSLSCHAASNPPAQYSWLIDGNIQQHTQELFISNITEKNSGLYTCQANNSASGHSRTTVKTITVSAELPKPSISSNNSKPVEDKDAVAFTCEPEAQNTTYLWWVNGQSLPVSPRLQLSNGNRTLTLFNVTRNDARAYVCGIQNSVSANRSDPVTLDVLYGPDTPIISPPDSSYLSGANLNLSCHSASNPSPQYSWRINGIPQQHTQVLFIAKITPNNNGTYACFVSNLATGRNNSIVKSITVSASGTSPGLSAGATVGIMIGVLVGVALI
Chain of CEACAM6 (human) (P40199 35-320): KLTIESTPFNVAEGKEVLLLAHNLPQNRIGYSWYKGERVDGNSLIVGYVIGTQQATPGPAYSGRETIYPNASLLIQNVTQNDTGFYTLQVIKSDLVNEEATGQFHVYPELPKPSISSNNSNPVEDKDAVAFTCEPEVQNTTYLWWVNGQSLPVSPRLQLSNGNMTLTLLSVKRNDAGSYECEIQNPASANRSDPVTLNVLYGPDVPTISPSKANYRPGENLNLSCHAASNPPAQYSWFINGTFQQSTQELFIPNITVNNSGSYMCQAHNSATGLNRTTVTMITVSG

(14)-3s, anti-CEACAM5 x anti-CD3 DNL complex (two CH1-DDD2-Fab-hMN-14 + one scFv-AD2-Okt3) (bispecific antibody)
T-cell mediated lysis of LS-174T, IC50 (CEACAM5 (human)): 2 pM

(15)-3s, anti-CEACAM6 x anti-CD3 DNL complex (two CH1-DDD2-Fab-hMN-15 + one scFv-AD2-Okt3) (bispecific antibody)
T-cell mediated lysis of NCI-N87, IC50 (CEACAM6 (human)): 3 pM

(19)-3s, anti-CD19 x anti-CD3 DNL complex (two CH1-DDD2-Fab-hA19 + one scFv-AD2-Okt3) (bispecific antibody)
% of cell population in T cell-B cell association (CD3+CD20+) at 0.1 µg/mL (19)-3s (CD19 (human)): > 25%
T-cell mediated killing of Daudi, LysisMax (CD19 (human)): 60%
T-cell mediated killing of Nalm6, LysisMax (CD19 (human)): 93%
T-cell mediated killing of Namalwa, LysisMax (CD19 (human)): 60%
T-cell mediated killing of Raji, IC50 (CD19 (human)): 3 nM
T-cell mediated killing of Raji, LysisMax (CD19 (human)): 41%
T-cell mediated killing of Ramos, IC50 (CD19 (human)): 0.17 pM
T-cell mediated killing of Ramos, LysisMax (CD19 (human)): 79%
association of Daudi cells with T cells after (19)-3s (CD19 (human)): > 90%
co-binding of Daudi and T cells, % CD20+/CD7+ flow events after (19)-3s (CD19 (human)): 45.5%
concentration at saturation of (19)-3s-mediated cell-to-cell association (Jurkat/Daudi) (CD19 (human)): 0.037 to 0.111 µg/mL
ex vivo re-directed T-cell killing of Daudi, IC50 (CD19 (human)): 1 pM
ex vivo re-directed T-cell killing of Jeko-1, IC50 (CD19 (human)): 3000 pM
ex vivo re-directed T-cell killing of Nalm-6, IC50 (CD19 (human)): 6 pM
ex vivo re-directed T-cell killing of Namalwa, IC50 (CD19 (human)): 63 pM
ex vivo re-directed T-cell killing of Raji, IC50 (CD19 (human)): > 3000 pM
ex vivo re-directed T-cell killing of Ramos, IC50 (CD19 (human)): 2 pM

(20)-3s, anti-CD20 x anti-CD3 DNL complex (two CH1-DDD2-Fab-hA20 + one scFv-AD2-Okt3) (bispecific antibody)
T-cell mediated killing of Daudi, IC50 (CD20 (human)): < 0.3 pM
T-cell mediated killing of Daudi, LysisMax (CD20 (human)): 90%
T-cell mediated killing of Jeko, LysisMax (CD20 (human)): 90%
T-cell mediated killing of Namalwa, LysisMax (CD20 (human)): 53%
ex vivo re-directed T-cell killing of Daudi, IC50 (CD20 (human)): 0.3 pM
ex vivo re-directed T-cell killing of Jeko-1, IC50 (CD20 (human)): 1 pM
ex vivo re-directed T-cell killing of Namalwa, IC50 (CD20 (human)): 30 pM
ex vivo re-directed T-cell killing of Ramos, IC50 (CD20 (human)): 0.4 pM

(22)-3s, anti-CD22 x anti-CD3 DNL complex (two CH1-DDD2-Fab-hLL2 + one scFv-AD2-Okt3) (bispecific antibody)
T-cell mediated lysis of Daudi, IC50 (CD22 (human)): 5 pM
T-cell mediated lysis of Daudi, LysisMax (CD22 (human)): 60%
ex vivo re-directed T-cell killing of Daudi, IC50 (CD22 (human)): 6 pM
ex vivo re-directed T-cell killing of Namalwa, IC50 (CD22 (human)): > 3000 pM

(C2)-3s, anti-HLA-DR x anti-CD3 DNL complex (two CH1-DDD2-Fab-hL243 + one scFv-AD2-Okt3) (bispecific antibody)
T-cell mediated killing of Jeko-1, LysisMax (HLA-DR (human)): 88%
ex vivo re-directed T-cell killing of Jeko-1, IC50 (HLA-DR (human)): 20 pM
ex vivo re-directed T-cell killing of Ramos, IC50 (HLA-DR (human)): 2 pM
